Source: the Human Domainome abundance scans (Beltran et al. 2025)
± gives the uncertainty stated by the source.

B1: Ubiquitin-protein ligase residues 30 to 86; numbered along this chain, Q05086 (parent)
chain: KHLIERYYHQLTEGCGNEACTNEFCASCPTFLRMDNNAAAIKALELYKINAKLCDPH

Variants of: B1
Assay: abundance fitness (aPCA) (normalised: wild type 0, dead -1); higher = more abundant; growth selection in yeast, the domain comes from the species named
Details: Homo sapiens

Q: Which abundance fitness does the source give for KHLIERQYHQLTEGCGNEACTNEFCASCPTFLRMDNNAAAIKALELYKINAKLCDPH here?
A: -0.781 ± 0.1

Q: With KHLIERGYHQLTEGCGNEACTNEFCASCPTFLRMDNNAAAIKALELYKINAKLCDPH as the variant, how does the abundance fitness read?
A: -0.77 ± 0.05

Q: Which abundance fitness does the source give for KHLIERFYHQLTEGCGNEACTNEFCASCPTFLRMDNNAAAIKALELYKINAKLCDPH here?
A: -0.034 ± 0.1

Q: For KHLIERMYHQLTEGCGNEACTNEFCASCPTFLRMDNNAAAIKALELYKINAKLCDPH, which abundance fitness is on record?
A: -0.215 ± 0.075

Q: With KHLIERNYHQLTEGCGNEACTNEFCASCPTFLRMDNNAAAIKALELYKINAKLCDPH as the variant, how does the abundance fitness read?
A: -0.658 ± 0.2

Q: With KHLIERLYHQLTEGCGNEACTNEFCASCPTFLRMDNNAAAIKALELYKINAKLCDPH as the variant, how does the abundance fitness read?
A: -0.154 ± 0.06

Q: With KHLIERSYHQLTEGCGNEACTNEFCASCPTFLRMDNNAAAIKALELYKINAKLCDPH as the variant, how does the abundance fitness read?
A: -0.799 ± 0.066

Q: With KHLIERWYHQLTEGCGNEACTNEFCASCPTFLRMDNNAAAIKALELYKINAKLCDPH as the variant, how does the abundance fitness read?
A: -0.184 ± 0.069

Q: Which abundance fitness does the source give for KHLIERKYHQLTEGCGNEACTNEFCASCPTFLRMDNNAAAIKALELYKINAKLCDPH here?
A: -0.796 ± 0.096

Q: For KHLIERRYHQLTEGCGNEACTNEFCASCPTFLRMDNNAAAIKALELYKINAKLCDPH, which abundance fitness is on record?
A: -0.925 ± 0.064

Q: With KHLIERHYHQLTEGCGNEACTNEFCASCPTFLRMDNNAAAIKALELYKINAKLCDPH as the variant, how does the abundance fitness read?
A: -0.289 ± 0.11

Q: Which abundance fitness does the source give for KHLIERYYHLLTEGCGNEACTNEFCASCPTFLRMDNNAAAIKALELYKINAKLCDPH here?
A: -0.198 ± 0.055

Q: For KHLIERYYHKLTEGCGNEACTNEFCASCPTFLRMDNNAAAIKALELYKINAKLCDPH, which abundance fitness is on record?
A: -0.5 ± 0.086

Q: For KHLIERYYHGLTEGCGNEACTNEFCASCPTFLRMDNNAAAIKALELYKINAKLCDPH, which abundance fitness is on record?
A: -0.311 ± 0.052

Q: For KHLIERYYHCLTEGCGNEACTNEFCASCPTFLRMDNNAAAIKALELYKINAKLCDPH, which abundance fitness is on record?
A: -0.274 ± 0.085

Q: With KHLIERYYHILTEGCGNEACTNEFCASCPTFLRMDNNAAAIKALELYKINAKLCDPH as the variant, how does the abundance fitness read?
A: -0.15 ± 0.089

Q: For KHLIERYYHTLTEGCGNEACTNEFCASCPTFLRMDNNAAAIKALELYKINAKLCDPH, which abundance fitness is on record?
A: -0.123 ± 0.07

Q: With KHLIERYYHDLTEGCGNEACTNEFCASCPTFLRMDNNAAAIKALELYKINAKLCDPH as the variant, how does the abundance fitness read?
A: -0.485 ± 0.1

Q: Which abundance fitness does the source give for KHLIERYYHHLTEGCGNEACTNEFCASCPTFLRMDNNAAAIKALELYKINAKLCDPH here?
A: -0.148 ± 0.099

Q: Which abundance fitness does the source give for KHLIERYYHELTEGCGNEACTNEFCASCPTFLRMDNNAAAIKALELYKINAKLCDPH here?
A: -0.868 ± 0.095

Q: With KHLIERYYHPLTEGCGNEACTNEFCASCPTFLRMDNNAAAIKALELYKINAKLCDPH as the variant, how does the abundance fitness read?
A: -0.86 ± 0.095

Q: Which abundance fitness does the source give for KHLIERYYHALTEGCGNEACTNEFCASCPTFLRMDNNAAAIKALELYKINAKLCDPH here?
A: -0.13 ± 0.063

Q: With KHLIERYYHSLTEGCGNEACTNEFCASCPTFLRMDNNAAAIKALELYKINAKLCDPH as the variant, how does the abundance fitness read?
A: -0.093 ± 0.064

Q: With KHLIERYYHVLTEGCGNEACTNEFCASCPTFLRMDNNAAAIKALELYKINAKLCDPH as the variant, how does the abundance fitness read?
A: -0.253 ± 0.052

Q: For KHLIERYYHNLTEGCGNEACTNEFCASCPTFLRMDNNAAAIKALELYKINAKLCDPH, which abundance fitness is on record?
A: -0.127 ± 0.092

Q: For KHLIERYYHYLTEGCGNEACTNEFCASCPTFLRMDNNAAAIKALELYKINAKLCDPH, which abundance fitness is on record?
A: -0.277 ± 0.11

Q: For KHLIERYYHWLTEGCGNEACTNEFCASCPTFLRMDNNAAAIKALELYKINAKLCDPH, which abundance fitness is on record?
A: -0.765 ± 0.079

Q: With KHLIERYYHFLTEGCGNEACTNEFCASCPTFLRMDNNAAAIKALELYKINAKLCDPH as the variant, how does the abundance fitness read?
A: -0.329 ± 0.099

Q: Which abundance fitness does the source give for KHLIERYYHRLTEGCGNEACTNEFCASCPTFLRMDNNAAAIKALELYKINAKLCDPH here?
A: -0.07 ± 0.049

Q: Which abundance fitness does the source give for KHLIERYKHQLTEGCGNEACTNEFCASCPTFLRMDNNAAAIKALELYKINAKLCDPH here?
A: 0.054 ± 0.081

Q: With KHLIERYDHQLTEGCGNEACTNEFCASCPTFLRMDNNAAAIKALELYKINAKLCDPH as the variant, how does the abundance fitness read?
A: -0.513 ± 0.096

Q: Which abundance fitness does the source give for KHLIERYIHQLTEGCGNEACTNEFCASCPTFLRMDNNAAAIKALELYKINAKLCDPH here?
A: 0.018 ± 0.094

Q: With KHLIERYEHQLTEGCGNEACTNEFCASCPTFLRMDNNAAAIKALELYKINAKLCDPH as the variant, how does the abundance fitness read?
A: -0.027 ± 0.07

Q: With KHLIERYNHQLTEGCGNEACTNEFCASCPTFLRMDNNAAAIKALELYKINAKLCDPH as the variant, how does the abundance fitness read?
A: -0.097 ± 0.084

Q: With KHLIERYVHQLTEGCGNEACTNEFCASCPTFLRMDNNAAAIKALELYKINAKLCDPH as the variant, how does the abundance fitness read?
A: -0.015 ± 0.057

Q: Which abundance fitness does the source give for KHLIERYHHQLTEGCGNEACTNEFCASCPTFLRMDNNAAAIKALELYKINAKLCDPH here?
A: -0.015 ± 0.13

Q: For KHLIERYQHQLTEGCGNEACTNEFCASCPTFLRMDNNAAAIKALELYKINAKLCDPH, which abundance fitness is on record?
A: 0.116 ± 0.094

Q: With KHLIERYWHQLTEGCGNEACTNEFCASCPTFLRMDNNAAAIKALELYKINAKLCDPH as the variant, how does the abundance fitness read?
A: -0.181 ± 0.065

Q: With KHLIERYLHQLTEGCGNEACTNEFCASCPTFLRMDNNAAAIKALELYKINAKLCDPH as the variant, how does the abundance fitness read?
A: 0.045 ± 0.057

Q: With KHLIERYRHQLTEGCGNEACTNEFCASCPTFLRMDNNAAAIKALELYKINAKLCDPH as the variant, how does the abundance fitness read?
A: 0.028 ± 0.049

Q: With KHLIERYFHQLTEGCGNEACTNEFCASCPTFLRMDNNAAAIKALELYKINAKLCDPH as the variant, how does the abundance fitness read?
A: -0.138 ± 0.1

Q: With KHLIERYTHQLTEGCGNEACTNEFCASCPTFLRMDNNAAAIKALELYKINAKLCDPH as the variant, how does the abundance fitness read?
A: 0.091 ± 0.069

Q: For KHLIERYSHQLTEGCGNEACTNEFCASCPTFLRMDNNAAAIKALELYKINAKLCDPH, which abundance fitness is on record?
A: -0.06 ± 0.052

Q: For KHLIERYGHQLTEGCGNEACTNEFCASCPTFLRMDNNAAAIKALELYKINAKLCDPH, which abundance fitness is on record?
A: -0.212 ± 0.051

Q: Which abundance fitness does the source give for KHLIERYAHQLTEGCGNEACTNEFCASCPTFLRMDNNAAAIKALELYKINAKLCDPH here?
A: -0.06 ± 0.07

Q: For KHLIERYPHQLTEGCGNEACTNEFCASCPTFLRMDNNAAAIKALELYKINAKLCDPH, which abundance fitness is on record?
A: -0.757 ± 0.11
